This is an account of results in patent publication US10175244B2, “Dominant negative HSP110 mutant and its use in prognosing and treating cancers” (INSERM (INSTITUT NATIONAL DE LA SANTÉ ET DE LA RECHERCHE …, priority 2011, dated 2019).

The test system of one assay is HCT116 cells. In words: Cell death analysis, TRAIL-induced apoptosis in transfected cells. Type of assay: cell-based, human. Particulars: for protective (anti-apoptotic) effect against TRAIL-induced apoptosis: transfected HCT116 cells. Here is the method: FIG. 11 depicts the effect of HSP110delE9 on apoptosis. HCT116 cells transfected with GFP-tagged HSP110, HSP110delE9 or an empty vector (GFP) were treated with recombinant TRAIL ligand (5 h) at the indicated doses. Apoptosis was measured by FACS analysis of caspase 3 activity.
FIG. 12 depicts the effect of increasing dose of HSP110delE9 on apoptosis. HCT116 cells transfected with GFP-tagged HSP110 and increased doses of HSP110delE9 or an empty vector (GFP) were treated with recombinant TRAIL ligand (60 ng/ml, 5 h) and the percentage of apoptosis was determined by DAPI staining (chromatin condensation).
(§1) Adherent cells were plated onto 12-well culture plates (1.5×10^5 cells/well) in complete medium. When indicated, cells were treated with TRAIL (150 ng/ml or 500 ng/ml) for 4 hours and cell death was measured by Hoechst 33342 staining (Sigma-Aldrich). Following treatment for 48 h with oxaliplatin (OxaPt, 20 and 40 μM), apoptotic cells were detected by Apo2.7 staining. Briefly, cells were harvested, washed in PBS and permeabilized with digitonin (100 mg/ml, 10 min at 4° C.). Cells were incubated with anti-Apo2.7 antibody and apoptotic cells were analyzed by flow cytometry using a LSR2 flow cytometer (Becton Dickinson, Franklin Lakes, N.J.).
(§2) A number of studies have previously described the anti-apoptotic role of HSP110. We therefore investigated the effect on apoptosis of the HSP110 truncation due to exon 9 skipping. HCT116 cells were transfected with HSP110wt or HSP110delE9 and apoptosis was triggered using the cell death factor, TRAIL (Tumor necrosis factor-related-apoptosis-inducing ligand).

The subject of assay [1] is MSI colon tumor cell lines. Briefly: Apoptosis on re-expression of HSP110delE9 (NMD experiments). The assay is classed as cell-based. Particulars: data not shown. From the text: The HSP110delE9 transcript contains a premature stop codon (PTC). Consequently, it is partially degraded by the NMD system in the tumor cells. […] Synthesis of chemical or biological compounds mimicking the HSP110delE9 activity in tumor cells, in particular mimicking its anti-apoptotic effect may have a major therapeutical interest in the treatment of CRCs. In the same way, the use of compounds susceptible to promote the HSP110delE9 expression in the tumor cells would be of great interest. […] Different pharmacological inhibitors of NMD are now available. They can be used to reproduce these experiments, both in vitro in different cell models and in animal models (nude mice xenografted with MSI CRC in first-line).

The target in the next assay is T1, HSP27 (Homo sapiens, UniProt P04792).
T1 construct: HA; expressed in transfected cells; host or cells: HCT116
In words: Immunoprecipitation and Western-blotting, association with HSP27. Type of assay: binding. Particulars: HCT116 cells, immunoprecipitation. As for the experimental part: (§3) Transfected cells were first lysed in lysis buffer (50 mM Hepes (pH 7.6), 150 mM NaCl, 5 mM EDTA and 0.1% NP40) followed by immunoprecipitation using GFP-tag antibody. Immunoprecipitates were separated in a 10% SDS-polyacrylamide gel and then transferred to PVDF membranes using a wet transfer apparatus (BioRad, Hercules, Califomia, USA). Membranes were first probed ovemight using primary antibodies: HA-tag antibody was from Covance (Eurogentec, Angers, France), 14-3-3 from Santa-Cruz (TebuBio, Le Perray en Yvelines, France) and GFP-tag antibody from Millipore (Molsheim, France).
(§4) The skipping of HSP110 exon 9 is frameshift and therefore generates a premature terminaison codon in exon 10 of the HSP110delE9 mRNA. HSP110delE9 is a truncated protein that contains the N-terminal ATP binding domain but is devoid of the substrate binding domain (FIG. 3). We performed several functional assays to better understand the role of increased expression of HSP110delE9 in MSI CRC cell lines. Chaperone activity was first studied using a protein thermolability assay that measures the in vitro ability of HSP110 to block protein aggregation induced by a heat shock using Murine Embryonic Fibroblasts (MEF).

The target in another assay is T2, HSP70 (Homo sapiens, UniProt P0DMV8).
T2 construct: HA; expressed in transfected cells; host or cells: HCT116
In words: Immunoprecipitation and Western-blotting, association with HSP70. The assay is classed as binding. Particulars: HCT116 cells, immunoprecipitation. Here is the method: as §3, §4

Assay [2] relates to protein aggregation induced by a heat shock. Briefly: HSP110 chaperone activity, protein thermolability assay. The assay is classed as biochemical, mouse. Conditions: for anti-aggregation chaperone activity: protein extracts of transfected MEF heated at 55° C. for 1 h. Here is the method: FIG. 9 depicts the effect of HSP110delE9 expression on protein aggregation. Protein extracts from MEF HSF1^+/+ cells transfected with HSP70, HSP110 and/or HSP110delE9 were heated at 55° C. for 1 h. The ratio between the initial amount of soluble protein before and after heat shock allowed to the quantification of protein aggregation. Each bar is the mean value of 4 different experiments. *P<0.05.
HSP110 chaperone activity was evaluated using a protein thermolability assay. Total protein (2 mg/mL) from HSF1^−/− MEFs that had been transfected with HSP70 (positive control), HSP27 (negative control), HSP110 or Mutant HSP110 (Dc Assay Kits, Bio-Rad, France) was heated at 55° C. for 1 hour. After centrifugation to eliminate aggregated proteins, the remaining native proteins in the supernatant were quantified. The ratio between the initial amount of soluble protein and that obtained after heating allowed for the quantification of protein aggregation.
as §4

The next assay deals with T3, HSP110wt (Homo sapiens, UniProt Q92598).
T3 construct: host or cells: HCT116
In words: Immunoprecipitation and Western-blotting, association with HSP110wt. The assay is classed as binding. Particulars: HCT116 cells, immunoprecipitation. As for the experimental part:
FIG. 10 depicts the analysis of HSP110delE9 to wild-type HSP110. Cell lysates from HCT116 transfected with GFP-tagged HSP110 and/or HSP110delE9 were subjected to immunoprecipitation using HSP110 that recognizes the C-terminus of HSP110. After migration, membranes were immunoblotted with GFP antibody. Inputs: protein level in total cell lysates.
as §3
The skipping of HSP110 exon 9 is frameshift and therefore generates a premature terminaison codon in exon 10 of the HSP110delE9 mRNA. HSP110delE9 is a truncated protein that contains the N-terminal ATP binding domain but is devoid of the substrate binding domain (FIG. 3). We performed several functional assays to better understand the role of increased expression of HSP110delE9 in MSI CRC cell lines. […]

The test system of assay [3] is MSI (HCT116, LoVo) and MSS (SW480) CRC cell lines. Briefly: Cell death analysis, sensitivity of transfected CRC cell lines to anticancer agents. The assay is classed as cell-based, human. As for the experimental part:
FIG. 13 depicts the pro-apoptotic effect of HSP110delE9 on tumor cells treated with a chemotherapeutic agent. HCT116 (MSI) or SW480 (MSS) cells were transfected with HSP110wt (1.5 μg) and co-transfected with two different doses (0.5 and 1 μg) of either GFP-empty vector or HSP110delE9. After treatment with oxaliplatin (Oxa, 40 μM, 48 h), apoptosis was assessed by FACS analysis. *P<0.05.
as §1, §2

Assay [4] concerns denatured protein substrates. Conditions: compared to HSC70 and HSP70; cited from earlier work.
Another assay concerns HSP90. Briefly: Immunoprecipitation and Western-blotting, association with HSP90. Particulars: HCT116 cells, immunoprecipitation. Type of assay: binding. As for the experimental part: as §3, §4

T2 sequence (P0DMV8 whole entry): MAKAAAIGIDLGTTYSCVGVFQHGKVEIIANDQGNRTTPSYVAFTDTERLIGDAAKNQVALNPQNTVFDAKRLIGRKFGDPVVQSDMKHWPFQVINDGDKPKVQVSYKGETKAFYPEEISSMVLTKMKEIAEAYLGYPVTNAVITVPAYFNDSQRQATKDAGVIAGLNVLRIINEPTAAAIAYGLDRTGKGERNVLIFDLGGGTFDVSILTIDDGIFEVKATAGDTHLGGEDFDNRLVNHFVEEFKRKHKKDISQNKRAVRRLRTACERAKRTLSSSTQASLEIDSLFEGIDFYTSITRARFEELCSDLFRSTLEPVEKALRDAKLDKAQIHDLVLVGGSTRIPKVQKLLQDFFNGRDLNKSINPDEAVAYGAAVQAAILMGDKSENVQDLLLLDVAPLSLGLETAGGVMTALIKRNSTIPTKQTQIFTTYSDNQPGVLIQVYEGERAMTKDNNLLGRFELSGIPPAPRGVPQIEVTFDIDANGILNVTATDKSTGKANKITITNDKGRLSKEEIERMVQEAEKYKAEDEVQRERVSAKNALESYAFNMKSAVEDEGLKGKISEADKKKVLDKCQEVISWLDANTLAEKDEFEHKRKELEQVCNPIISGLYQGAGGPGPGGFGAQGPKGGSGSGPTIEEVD
T1 sequence (P04792 whole entry): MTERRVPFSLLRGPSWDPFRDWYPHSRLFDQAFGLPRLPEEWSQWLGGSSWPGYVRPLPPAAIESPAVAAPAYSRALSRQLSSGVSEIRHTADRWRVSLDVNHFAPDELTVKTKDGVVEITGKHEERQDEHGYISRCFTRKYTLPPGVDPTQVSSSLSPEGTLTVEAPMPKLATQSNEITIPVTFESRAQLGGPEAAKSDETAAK

B1: HSP110delE9: truncated HSP110 protein (SEQ ID NO: 1) from mRNA lacking exon 9, devoid of the substrate binding domain (protein, listed as Homo sapiens)
chain: MSVVGLDVGSQSCYIAVARAGGIETIANEFSDRCTPSVISFGSKNRTIGVAAKNQQITHANNTVSNFKRFHGRAFNDPFIQKEKENLSYDLVPLKNGGVGIKVMYMGEEHLFSVEQITAMLLTKLKETAENSLKKPVTDCVISVPSFFTDAERRSVLDAAQIVGLNCLRLMNDMTAVALNYGIYKQDLPSLDEKPRIVVFVDMGHSAFQVSACAFNKGKLKVLGTAFDPFLGGKNFDEKLVEHFCAEFKTKYKLDAKSKIRALLRLYQECEKLKKLMSSNSTDLPLNIECFMNDKDVSGKMNRSQFEELCAELLQKIEVPLYSLLEQTHLKVEDVSAVEIVGGATRIPAVKERIAKFFGKDISTTLNADEAVARGCALQC
Regarding B1, the “effect on anti-apoptotic function of HSP110wt” value in the assay with HCT116 cells (HCT116 co-transfected with HSP110wt and increasing doses of HSP110delE9, TRAIL) is recorded as “able to block its anti-apoptotic function in a dose-dependent manner”. In addition, the “protective (anti-apoptotic) effect against TRAIL-induced apoptosis” value with HCT116 cells was “lacked the protective properties of HSP110wt”. Further, in assay [1], the apoptosis on re-expression entry is reported as “causes apoptosis of MSI colon tumor cell lines”. Also, the “association with HSP27” value with HSP27 was “lost the ability to associate with HSP70 and HSP27”. In addition, in the assay with HSP70, the “association with HSP70” value is “lost the ability to associate with HSP70 and HSP27”. Besides, the “effect on anti-aggregation activity of HSP110wt” value in assay [2] (HSP110delE9 added at the same time as HSP110wt) is “anti-aggregation activity of HSP110wt was abrogated”. The anti-aggregation chaperone activity result in assay [2] was “lost this chaperone activity”. Moreover, the “association with HSP110wt” value in the assay with HSP110wt is “associated strongly with HSP110wt”. Further, the “sensitization of colon cancer cells to chemotherapeutic agents” value in assay [3] (5-fluorouracil and oxaliplatin, in vitro) is “caused the sensitization of colon cancer cells”. In addition, the “sensitivity of CRC cell lines to oxaliplatin” value in assay [3] (over-expression in HCT116, LoVo, SW480) is reported as “increased their sensitivity to anticancer agents such as oxaliplatin”.

B2: HSP110wt: wild-type heat-shock 110 kDa protein, SEQ ID NO: 2 (protein, listed as Homo sapiens)
chain: MSVVGLDVGSQSCYIAVARAGGIETIANEFSDRCTPSVISFGSKNRTIGVAAKNQQITHANNTVSNFKRFHGRAFNDPFIQKEKENLSYDLVPLKNGGVGIKVMYMGEEHLFSVEQITAMLLTKLKETAENSLKKPVTDCVISVPSFFTDAERRSVLDAAQIVGLNCLRLMNDMTAVALNYGIYKQDLPSLDEKPRIVVFVDMGHSAFQVSACAFNKGKLKVLGTAFDPFLGGKNFDEKLVEHFCAEFKTKYKLDAKSKIRALLRLYQECEKLKKLMSSNSTDLPLNIECFMNDKDVSGKMNRSQFEELCAELLQKIEVPLYSLLEQTHLKVEDVSAVEIVGGATRIPAVKERIAKFFGKDISTTLNADEAVARGCALQCAILSPAFKVREFSVTDAVPFPISLIWNHDSEDTEGVHEVFSRNHAAPFSKVLTFLRRGPFELEAFYSDPQGVPYPEAKIGRFVVQNVSAQKDGEKSRVKVKVRVNTHGIFTISTASMVEKVPTEENEMSSEADMECLNQRPPENPDTDKNVQQDNSEAGTQPQVQTDAQQTSQSPPSPELTSEENKIPDADKANEKKVDQPPEAKKPKIKVVNVELPIEANLVWQLGKDLLNMYIETEGKMIMQDKLEKERNDAKNAVEEYVYEFRDKLCGPYEKFICEQDHQNFLRLLTETEDWLYEEGEDQAKQAYVDKLEELMKIGTPVKVRFQEAEERPKMFEELGQRLQHYAKIAADFRNKDEKYNHIDESEMKKVEKSVNEVMEWMNNVMNAQAKKSLDQDPVVRAQEIKTKIKELNNTCEPVVTQPKPKIESPKLERTPNGPNIDKKEEDLEDKNNFGAEPPHQNGECYPNEKNSVNMDLD
Take B2: the “protective (anti-apoptotic) effect against TRAIL-induced apoptosis” value in the assay with HCT116 cells is “exerted a protective effect”. Besides, the “association with HSP27” value with HSP27 is on record as “efficiently interacted”. In addition, the “association with HSP70” value with HSP70 is “efficiently interacted with HSP70”. Besides, the “efficiency at binding and stabilizing denatured protein substrates” value in assay [4] is reported as “approximately four-fold more efficient”. The anti-aggregation chaperone activity result in assay [2] is listed as “anti-aggregation activity comparable to other HSPs such as HSP70”. Further, the “association with HSP90” value in the assay with HSP90 is reported as “not with HSP90”.

B3: TRAIL: cell death factor, Tumor necrosis factor-related-apoptosis-inducing ligand, recombinant (protein, UniProt P50591 1-281, looked up)
Tumor necrosis factor ligand …: MAMMEVQGGPSLGQTCVLIVIFTVLLQSLCVAVTYVYFTNELKQMQDKYSKSGIACFLKEDDSYWDPNDEESMNSPCWQVKWQLRQLVRKMILRTSEETISTVQEKQQNISPLVRERGPQRVAAHITGTRGRSNTLSSPNSKNEKALGRKINSWESSRSGHSFLSNLHLRNGELVIHEKGFYYIYSQTYFRFQEEIKENTKNDKQMVQYIYKYTSYPDPILLMKSARNSCWSKDAEYGLYSIYQGGIFELKENDRIFVSVTNEHLIDMDHEASFFGAFLVG
modifications: His tag
notes: cell death factor, Tumor necrosis factor-related-apoptosis-inducing ligand, recombinant
For B3, in the assay with HCT116 cells (HCT116 cells treated with TRAIL), the induction of apoptosis result is listed as “induced dose dependent apoptosis”.
